Results taken from patent US20130177579A1 (BIOALLIANCE C V, published 2013).

B1: antibody 6-90 (antibody, mouse IgM, V domains shown)
VH: EVELQQFGIEMVKPGASVKISCKASGYIFTDYHMDWVRQSHGKSLEWIGDIDPKYDRVTYNQKFKGKASLTADKSSSTAYMELRSLTSEDTAVYYCAKTGAYGDYLAYWGQGTLVTVSA
VL: DLVMTQTPLSLPVSLGDQASISCRSSQSLVHSDGNTYFYWYLQKPGQSPKLLIYKVSNRFSGVPDRFSAGGSGTYFTLKISRVEAEDLGVYFCSQTTHFPPTFGGGTKLEIKR
notes: Mouse IgM, kappa from a hybridoma; tested as hybridoma culture supernatant
B2: antibody 55-31 (antibody, mouse IgM, V domains shown)
VH: QVQLQQPGAELVKPGTSVKLSCKASGYNFTSYWINWVKLRPGQGLEWIGDIYPGSGSTNYNEKFKSKATLTVDTSSSTAYMQLSSLASEDSALYYCARSAYRYDWFAYWGQGTLVTVSA
VL: DIQMTQSPASLSVSVGETVTITCRASENIYSNLAWYQQKQGKSPQLLVYAATNLADGVPSRFSGSGSGTQYSLKINSLQSEDFGSYYCQHFWGTPYTFGGGTKLEIKR
notes: as for B1
B3: antibody 122-72 (antibody, V domains shown)
VH: EVQLVESGGGLVQPKGSLKLSCAASGFTFNTYAMNWVRQAPGKGLEWVARIRSKSNNYATYYADSVKDRFTISRDDSQSMLYLQMNNLKTEDTAMYYCVAYGSRNYWGQGTTLTVSS
VL: DIVMTQSPSSLTVTAGEKVTMSCKSSQSLLNSGNQKNYLTWYQQKPGQPPKLLIYWASTRESGVPDRFTGSGSGTDFTLTISSVQAEDLAVYYCQNDYSYPYTFGGGTKLEIKR
notes: Mouse IgM, kappa from a hybridoma; tested as hybridoma culture supernatant; Antibody 60-43 is said to have the same CDRs

molecular target: T1, human transferrin receptor expressed by normal human cells (RBC, PMN, lymphocytes, monocytes, platelets, … (human, UniProt P02786 1-760)); experiment: FACS, RBC, donor D014, 1x
T1 construct: The assay is whole-cell FACS on normal donor cells; also called TfR on normal cells
Experimental: (§1) The hyper-immuned serum (Hyp-serum) or the corresponding cell marker antibodies for certain cell types were included as positive controls.
(§2) 1×10⁵ cells were seeded in each well of a v-bottomed 96-well plate and incubated with 50 μl of hybridoma culture supernatant at 1× and 10× dilution, or isotype control antibody mouse IgM, κ (BD™, Cat. No. 557275) at concentration of 1 μg/ml. A 300× dilution of human cell hyper-immune serum was used as binding positive control for all cell types. PE-conjugated anti-human CD41a (Southern Biotech™, Cat. No. 9391-09) was used as a positive control for staining human platelets. Anti-sialyl Lewis x antibody (Millipore™, Cat. No. MAB2096) was used as a positive control for staining human PMN. Anti-human CD31 (Hycult™, Cat. No. HM2039) was used as a positive control for staining HUVEC. After 30 minutes incubation at 4° C., cells were washed twice with 200 μl FACS buffer (1×PBS containing 1% FBS), stained with 50 μl of 1 μg/ml goat F(ab′)2-anti-mouse IgG(H+L)-PE (Southern Biotech™, Cat. No. 1032-09) or 1 μg/ml goat F(ab′)2-anti-mouse IgM(H+L)-PE (Southern Biotech™, Cat. No. 1022-09) in FACS buffer. After 30 minutes of incubation at 4° C., cells were washed twice with FACS buffer and analyzed by flow cytometry (BD LSR, BD Life Sciences).

T1 sequence (P02786 whole entry G142S): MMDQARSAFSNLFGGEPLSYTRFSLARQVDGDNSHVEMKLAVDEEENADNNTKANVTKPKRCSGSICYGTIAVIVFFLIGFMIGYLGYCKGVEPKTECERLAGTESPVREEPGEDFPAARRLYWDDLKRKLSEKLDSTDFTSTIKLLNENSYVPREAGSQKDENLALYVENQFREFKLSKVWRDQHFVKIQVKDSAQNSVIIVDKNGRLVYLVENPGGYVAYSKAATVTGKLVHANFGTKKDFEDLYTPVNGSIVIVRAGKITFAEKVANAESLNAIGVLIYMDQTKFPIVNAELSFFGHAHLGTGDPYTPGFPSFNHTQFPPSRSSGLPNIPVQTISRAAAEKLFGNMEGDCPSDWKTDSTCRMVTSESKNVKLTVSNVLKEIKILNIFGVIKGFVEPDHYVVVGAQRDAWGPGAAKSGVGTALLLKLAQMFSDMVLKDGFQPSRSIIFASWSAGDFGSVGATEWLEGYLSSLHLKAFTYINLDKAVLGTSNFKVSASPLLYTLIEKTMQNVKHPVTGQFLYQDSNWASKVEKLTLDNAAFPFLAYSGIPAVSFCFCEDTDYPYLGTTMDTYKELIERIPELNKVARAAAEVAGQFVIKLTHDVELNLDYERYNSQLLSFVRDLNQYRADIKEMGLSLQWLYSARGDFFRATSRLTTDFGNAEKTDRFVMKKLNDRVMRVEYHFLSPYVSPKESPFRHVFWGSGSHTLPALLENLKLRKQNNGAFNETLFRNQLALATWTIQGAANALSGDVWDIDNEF

**Q.** B1 was tested. Which “% positive cell binding” value did it give?
**A.** 1%

**Q.** B2 was tested. Which “% positive cell binding” value did it give?
**A.** 1%

**Q.** B3 was tested. Which “% positive cell binding” value did it give?
**A.** 1%

molecular target: T1, human transferrin receptor expressed by …; experiment: FACS, RBC, donor D005, 1/10x
Experimental: as §1, §2

**Q.** For B1, which “% positive cell binding” value is on record?
**A.** < 1%

**Q.** B2 was tested. Which “% positive cell binding” value did it give?
**A.** < 1%

**Q.** B3 was tested. Which “% positive cell binding” value did it give?
**A.** < 1%

molecular target: T1, human transferrin receptor expressed by …; experiment: FACS, monocytes, donor D016, 1/10x
Experimental: as §1, §2

**Q.** With B1 as the binder, how does the “% positive cell binding” value read?
**A.** < 1%

**Q.** For B2, which “% positive cell binding” value is on record?
**A.** < 1%

**Q.** Which “% positive cell binding” value does the source give for B3 here?
**A.** 1%

molecular target: T1, human transferrin receptor expressed by …; experiment: FACS, RBC, donor D102, 1/10x
Experimental: as §1, §2

**Q.** For B1, which “% positive cell binding” value is on record?
**A.** < 1%

**Q.** B2 was tested. Which “% positive cell binding” value did it give?
**A.** < 1%

**Q.** With B3 as the binder, how does the “% positive cell binding” value read?
**A.** < 1%

molecular target: human transferrin receptor expressed by nonhematopoietic cancer cells (human) (UniProt P02786); experiment: FACS, Kato III cells, 1/5X
Sequence (P02786 whole entry G142S): as above

**Q.** B1 was tested. Which MFI did it give?
**A.** 1250 MFI

**Q.** Which MFI does the source give for B2 here?
**A.** 97 MFI

**Q.** Which MFI does the source give for B3 here?
**A.** 724 MFI

molecular target: T1, human transferrin receptor expressed by …; experiment: FACS, HUVEC, 1x
Experimental: as §1, §2

**Q.** How did the “% positive cell binding” value turn out when B1 was run?
**A.** 1%

**Q.** How did the “% positive cell binding” value turn out when B2 was run?
**A.** 2%

**Q.** How did the “% positive cell binding” value turn out when B3 was run?
**A.** 1%

molecular target: T1, human transferrin receptor expressed by …; experiment: FACS, monocytes, donor D102, 1x
Experimental: (§3) Preparation of PBMC and PMN: The whole blood was diluted with an equal volume of PBS and mixed with 1/10 volume of 15% Dextran solution. […] After centrifugation at 2200 rpm for 15 min (rotor: SORVALL, PN11788 and centrifuge: SORVALL, RT7), PBMC concentrated in the interface, were collected and washed with large volumes of FACS buffer (2% FBS in PBS) for future use. The PMN-rich pellet was collected, from which residual RBC was removed by hypotonic lysis in 0.2% NaCl.
as §2

**Q.** How did the “% positive cell binding” value turn out when B1 was run?
**A.** 2%

**Q.** For B2, which “% positive cell binding” value is on record?
**A.** 3%

**Q.** With B3 as the binder, how does the “% positive cell binding” value read?
**A.** 1%

molecular target: T1, human transferrin receptor expressed by …; experiment: FACS, PMN, donor D014, 1x
Experimental: as §1, §2

**Q.** Which “% positive cell binding” value does the source give for B1 here?
**A.** < 1%

**Q.** B2 was tested. Which “% positive cell binding” value did it give?
**A.** < 1%

**Q.** How did the “% positive cell binding” value turn out when B3 was run?
**A.** 1%

molecular target: T1, human transferrin receptor expressed by …; experiment: FACS, RBC, donor D016, 1/10x
Experimental: as §1, §2

**Q.** How did the “% positive cell binding” value turn out when B1 was run?
**A.** 1%

**Q.** B2 was tested. Which “% positive cell binding” value did it give?
**A.** 1%

**Q.** B3 was tested. Which “% positive cell binding” value did it give?
**A.** 1%

molecular target: T1, human transferrin receptor expressed by …; experiment: FACS, PMN, donor D016, 1x
Experimental: as §3, §2

**Q.** For B1, which “% positive cell binding” value is on record?
**A.** 1%

**Q.** For B2, which “% positive cell binding” value is on record?
**A.** < 1%

**Q.** How did the “% positive cell binding” value turn out when B3 was run?
**A.** < 1%

molecular target: T1, human transferrin receptor expressed by …; experiment: FACS, RBC, donor D014, 1/10x
Experimental: as §1, §2

**Q.** With B1 as the binder, how does the “% positive cell binding” value read?
**A.** < 1%

**Q.** B2 was tested. Which “% positive cell binding” value did it give?
**A.** 1%

**Q.** Which “% positive cell binding” value does the source give for B3 here?
**A.** 1%

molecular target: T1, human transferrin receptor expressed by …; experiment: FACS, platelets, donor D005, 1x
Experimental: as §1, §2

**Q.** Which “% positive cell binding” value does the source give for B1 here?
**A.** < 1%

**Q.** For B2, which “% positive cell binding” value is on record?
**A.** < 1%

**Q.** B3 was tested. Which “% positive cell binding” value did it give?
**A.** < 1%

molecular target: T1, human transferrin receptor expressed by …; experiment: FACS, lymphocytes, donor D005, 1/10x
Experimental: as §3, §2

**Q.** For B1, which “% positive cell binding” value is on record?
**A.** 3%

**Q.** How did the “% positive cell binding” value turn out when B2 was run?
**A.** 2%

**Q.** With B3 as the binder, how does the “% positive cell binding” value read?
**A.** 1%

molecular target: T1, human transferrin receptor expressed by …; experiment: FACS, lymphocytes, donor D014, 1/10x
Experimental: as §3, §2

**Q.** B1 was tested. Which “% positive cell binding” value did it give?
**A.** 1%

**Q.** With B2 as the binder, how does the “% positive cell binding” value read?
**A.** 1%

**Q.** How did the “% positive cell binding” value turn out when B3 was run?
**A.** 1%

molecular target: T1, human transferrin receptor expressed by …; experiment: FACS, lymphocytes, donor D016, 1x
Experimental: as §1, §2

**Q.** B1 was tested. Which “% positive cell binding” value did it give?
**A.** 1%

**Q.** B2 was tested. Which “% positive cell binding” value did it give?
**A.** 1%

**Q.** With B3 as the binder, how does the “% positive cell binding” value read?
**A.** < 1%

molecular target: T1, human transferrin receptor expressed by …; experiment: FACS, RBC, donor D005, 1x
Experimental: as §1, §2

**Q.** With B1 as the binder, how does the “% positive cell binding” value read?
**A.** < 1%

**Q.** How did the “% positive cell binding” value turn out when B2 was run?
**A.** < 1%

**Q.** B3 was tested. Which “% positive cell binding” value did it give?
**A.** < 1%

molecular target: human transferrin receptor expressed by nonhematopoietic cancer cells (human) (UniProt P02786); experiment: FACS, HEC-1-A cells, 1/5X

**Q.** Which MFI does the source give for B1 here?
**A.** 11 MFI

**Q.** Which MFI does the source give for B2 here?
**A.** 1240 MFI

**Q.** For B3, which MFI is on record?
**A.** 15 MFI

molecular target: T1, human transferrin receptor expressed by …; experiment: FACS, monocytes, donor D014, 1/10x
Experimental: as §3, §2

**Q.** For B1, which “% positive cell binding” value is on record?
**A.** < 1%

**Q.** B2 was tested. Which “% positive cell binding” value did it give?
**A.** < 1%

**Q.** With B3 as the binder, how does the “% positive cell binding” value read?
**A.** 1%

molecular target: T1, human transferrin receptor expressed by …; experiment: FACS, PMN, donor D102, 1/10x
Experimental: as §3, §2

**Q.** B1 was tested. Which “% positive cell binding” value did it give?
**A.** 1%

**Q.** For B2, which “% positive cell binding” value is on record?
**A.** 1%

**Q.** For B3, which “% positive cell binding” value is on record?
**A.** 1%

molecular target: T1, human transferrin receptor expressed by …; experiment: FACS, platelets, donor D016, 1/10x
Experimental: as §1, §2

**Q.** For B1, which “% positive cell binding” value is on record?
**A.** < 1%

**Q.** For B2, which “% positive cell binding” value is on record?
**A.** < 1%

**Q.** How did the “% positive cell binding” value turn out when B3 was run?
**A.** < 1%
